Data from patent US20210238260A1.
Blank lines part the entries; values can stand above or below the substance they belong to.

Key:
[1] = biological target: Antithrombin III (ATIII) (human) (UniProt P01008); assay: inhibition of FIXa by ATIII, residual FIXa activity; heparin not given
[2] = biological target: antithrombin III (plasma purified human AT-III, Molecular Innovations) (human) (UniProt P01008); assay: AT-III/UFH inhibition of FIXa cleavage of Mesyl-D-CHG-Gly-Arg-AMC; K0.5 = AT-III conc. for 50% inhibition (AT-III varied)
[3] = biological target: plasma purified human antithrombin III (AT-III), in complex with unfractionated heparin (UFH) (human) (UniProt P01008); assay: K0.5: AT-III conc. (with UFH) for 50% inhibition of FIXa cleavage of Mesyl-D-CHG-Gly-Arg-AMC
[4] = biological target: Factor VIIIa (recombinant FVIII, Kogenate FS, activated with alpha-thrombin) (UniProt P00451); assay: apparent functional KD (KD-app): FXa generation by FIXa with FVIIIa titrated, PC/PS vesicles, saturating FX, fluorogenic Spectrafluor FXa
Chain of Factor VIIIa (recombinant FVIII, Kogenate FS, activated with alpha-thrombin) (P00451 other isoform, or with tags, fused parts or gaps limits assumed): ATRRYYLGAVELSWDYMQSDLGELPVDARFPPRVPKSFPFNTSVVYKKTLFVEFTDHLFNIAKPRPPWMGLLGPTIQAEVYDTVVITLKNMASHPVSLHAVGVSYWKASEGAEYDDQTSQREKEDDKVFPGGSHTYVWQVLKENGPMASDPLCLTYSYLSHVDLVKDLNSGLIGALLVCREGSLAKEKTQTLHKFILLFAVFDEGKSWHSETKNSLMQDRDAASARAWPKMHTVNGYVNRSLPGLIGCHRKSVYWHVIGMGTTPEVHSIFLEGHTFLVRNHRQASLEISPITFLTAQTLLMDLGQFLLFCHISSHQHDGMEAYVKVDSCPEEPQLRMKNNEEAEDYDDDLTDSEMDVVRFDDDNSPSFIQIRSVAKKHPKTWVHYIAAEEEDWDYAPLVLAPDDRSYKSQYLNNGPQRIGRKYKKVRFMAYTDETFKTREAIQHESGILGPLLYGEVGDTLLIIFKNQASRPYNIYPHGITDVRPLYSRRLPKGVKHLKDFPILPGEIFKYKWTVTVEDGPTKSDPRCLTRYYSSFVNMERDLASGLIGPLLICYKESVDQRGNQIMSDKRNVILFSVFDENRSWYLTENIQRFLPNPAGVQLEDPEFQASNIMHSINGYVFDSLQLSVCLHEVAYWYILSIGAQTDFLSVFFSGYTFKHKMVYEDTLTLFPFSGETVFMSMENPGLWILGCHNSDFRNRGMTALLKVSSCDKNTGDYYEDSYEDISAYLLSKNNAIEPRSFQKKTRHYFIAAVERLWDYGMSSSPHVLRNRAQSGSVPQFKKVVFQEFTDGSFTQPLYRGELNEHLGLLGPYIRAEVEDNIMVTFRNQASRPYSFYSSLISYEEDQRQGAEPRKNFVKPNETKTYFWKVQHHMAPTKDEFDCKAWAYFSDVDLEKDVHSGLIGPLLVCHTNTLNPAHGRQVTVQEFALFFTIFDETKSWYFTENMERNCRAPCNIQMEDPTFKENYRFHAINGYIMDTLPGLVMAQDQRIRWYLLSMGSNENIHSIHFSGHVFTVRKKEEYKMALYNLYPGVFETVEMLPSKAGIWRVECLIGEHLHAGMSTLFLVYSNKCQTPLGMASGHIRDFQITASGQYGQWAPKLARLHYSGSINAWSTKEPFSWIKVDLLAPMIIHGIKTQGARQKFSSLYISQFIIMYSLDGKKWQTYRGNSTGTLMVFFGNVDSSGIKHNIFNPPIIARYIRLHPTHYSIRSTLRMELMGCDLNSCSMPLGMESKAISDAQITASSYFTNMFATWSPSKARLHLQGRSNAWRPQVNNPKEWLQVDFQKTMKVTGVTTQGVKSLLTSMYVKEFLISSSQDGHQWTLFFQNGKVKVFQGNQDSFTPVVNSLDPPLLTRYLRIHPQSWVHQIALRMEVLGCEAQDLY

[5] = biological target: plasma purified human antithrombin III (AT-III), in complex with unfractionated heparin (UFH) (human) (UniProt P01008); assay: inhibition of FIXa by AT-III/UFH, residual activity on Mesyl-D-CHG-Gly-Arg-AMC, pseudo-first-order
FIXa F314N/H315S (human) = FIXa F314N/H315S (human) (UniProt P00740); assay: cell-based or functional assay
FIXa E410N (human) = FIXa E410N (human) (UniProt P00740); assay: cell-based or functional assay
[6] = biological target: FIXa A103N/N105S/K247N/N249S (human) (UniProt P00740); assay: cell-based or functional assay
FIXa E239N (human) = FIXa E239N (human) (UniProt P00740); assay: cell-based or functional assay
[7] = biological target: FIXa D85N/D104N/K106S/I251S (human) (UniProt P00740); assay: cell-based or functional assay
FIXa R403A (human) = FIXa R403A (human) (UniProt P00740); assay: cell-based or functional assay
[8] = biological target: FIXa D104N/K106S/Y155F/K247N/N249S (human) (UniProt P00740); assay: cell-based or functional assay
FIXa R318N/A320S (human) = FIXa R318N/A320S (human) (UniProt P00740); assay: cell-based or functional assay
FIXa D203Y (human) = FIXa D203Y (human) (UniProt P00740); assay: cell-based or functional assay
FIXa K413N (human) = FIXa K413N (human) (UniProt P00740); assay: cell-based or functional assay
FIXa R318Y (human) = FIXa R318Y (human) (UniProt P00740); assay: cell-based or functional assay
FIXa T241N/H243S (human) = FIXa T241N/H243S (human) (UniProt P00740); assay: cell-based or functional assay
FIXa D203M (human) = FIXa D203M (human) (UniProt P00740); assay: cell-based or functional assay
FIXa A204M (human) = FIXa A204M (human) (UniProt P00740); assay: cell-based or functional assay
FIXa R318A (human) = FIXa R318A (human) (UniProt P00740); assay: cell-based or functional assay
[9] = biological target: FIXa D104N/K106S/Y155F/N260S (human) (UniProt P00740); assay: cell-based or functional assay
[10] = biological target: FIXa D104N/K106S/N260S (human) (UniProt P00740); assay: cell-based or functional assay
FIXa K400A/R403A (human) = FIXa K400A/R403A (human) (UniProt P00740); assay: cell-based or functional assay
[11] = biological target: FIXa Y155F/K247N/N249S (human) (UniProt P00740); assay: cell-based or functional assay
FIXa Y155F/N260S (human) = FIXa Y155F/N260S (human) (UniProt P00740); assay: cell-based or functional assay
FIXa V202M (human) = FIXa V202M (human) (UniProt P00740); assay: cell-based or functional assay
FIXa Y284N (human) = FIXa Y284N (human) (UniProt P00740); assay: cell-based or functional assay
FIXa R312Y (human) = FIXa R312Y (human) (UniProt P00740); assay: cell-based or functional assay
FIXa N260S (human) = FIXa N260S (human) (UniProt P00740); assay: cell-based or functional assay
[12] = biological target: FIXa A103N/N105S/I251S (human) (UniProt P00740); assay: cell-based or functional assay
FIXa R318E (human) = FIXa R318E (human) (UniProt P00740); assay: cell-based or functional assay
FIXa K400E/R403E (human) = FIXa K400E/R403E (human) (UniProt P00740); assay: cell-based or functional assay

- ATIII Kapp (second-order rate constant of inhibition) [1]: 2.4e+07 M⁻¹ s⁻¹
Substance: WT-recombinant FIX (native amino-acid sequence, made in the Sponsor's laboratory; activated, FIXa) (from UniProt P00740 47-191; P00740 227-461) (enzyme)

- ATIII Kapp (second-order rate constant of inhibition) [1]: 1.6e+07 M⁻¹ s⁻¹
Substance: BeneFIX Coagulation Factor IX (Recombinant) (activated, FIXa) (from UniProt P00740 47-191; P00740 227-461) (enzyme)

- IC50 [2]: 30 nM
Substance: Plasma Purified FIXa (Haematologic Technologies, Inc.) (from UniProt P00740 47-191; P00740 227-461) (enzyme)

- IC50 [3]: 30 nM
- Kd [4]: 102 nM
Substance: Plasma Purified FIXa (from UniProt P00740 47-191; P00740 227-461) (enzyme)

- kapp (apparent second-order rate constant for inhibition) [5]: 9800 M⁻¹ s⁻¹
Substance: FIXa-K247N/N249S/R318Y/T343R/R403E (from UniProt P00740 47-191; P00740 227-461) (enzyme)

- kapp (apparent second-order rate constant for inhibition) [5]: 12000 M⁻¹ s⁻¹
Substance: FIXa-Y155F/K247N/N249S/R318Y/T343R/R403E (from UniProt P00740 47-191; P00740 227-461) (enzyme)

- kapp (apparent second-order rate constant for inhibition) [5]: 630000 M⁻¹ s⁻¹
Substance: FIXa-K228N/K247N/N249S/R318Y/R338E/T343R/E410N (from UniProt P00740 47-191; P00740 227-461) (enzyme)

- K0.5 (nM), inhibition of FIXa by AT-III/UFH (FIXa F314N/H315S (human)): 104 nM
- K0.5 (nM), inhibition of FIXa by AT-III/UFH (FIXa E410N (human)): 9 nM
- K0.5 (nM), inhibition of FIXa by AT-III/UFH [6]: 53 nM
- K0.5 (nM), inhibition of FIXa by AT-III/UFH (FIXa E239N (human)): 132 nM
- K0.5 (nM), inhibition of FIXa by AT-III/UFH [7]: 28 nM
- K0.5 (nM), inhibition of FIXa by AT-III/UFH (FIXa R403A (human)): 190 nM
- K0.5 (nM), inhibition of FIXa by AT-III/UFH [8]: 27 nM
- K0.5 (nM), inhibition of FIXa by AT-III/UFH (FIXa R318N/A320S (human)): > 999 nM
- K0.5 (nM), inhibition of FIXa by AT-III/UFH (FIXa D203Y (human)): 16 nM
- K0.5 (nM), inhibition of FIXa by AT-III/UFH (FIXa K413N (human)): 27 nM
- K0.5 (nM), inhibition of FIXa by AT-III/UFH (FIXa R318Y (human)): 1980 nM
- K0.5 (nM), inhibition of FIXa by AT-III/UFH (FIXa T241N/H243S (human)): 21 nM
- K0.5 (nM), inhibition of FIXa by AT-III/UFH (FIXa D203M (human)): 11 nM
- K0.5 (nM), inhibition of FIXa by AT-III/UFH (FIXa A204M (human)): 29 nM
- K0.5 (nM), inhibition of FIXa by AT-III/UFH (FIXa R318A (human)): 4140 nM
- K0.5 (nM), inhibition of FIXa by AT-III/UFH [9]: 292 nM
- K0.5 (nM), inhibition of FIXa by AT-III/UFH [10]: 228 nM
- K0.5 (nM), inhibition of FIXa by AT-III/UFH (FIXa K400A/R403A (human)): > 999 nM
- K0.5 (nM), inhibition of FIXa by AT-III/UFH [11]: 13 nM
- K0.5 (nM), inhibition of FIXa by AT-III/UFH (FIXa Y155F/N260S (human)): 77 nM
- K0.5 (nM), inhibition of FIXa by AT-III/UFH (FIXa V202M (human)): 14 nM
- K0.5 (nM), inhibition of FIXa by AT-III/UFH (FIXa Y284N (human)): 41 nM
- K0.5 (nM), inhibition of FIXa by AT-III/UFH (FIXa R312Y (human)): 2500 nM
- K0.5 (nM), inhibition of FIXa by AT-III/UFH (FIXa N260S (human)): 312 nM
- K0.5 (nM), inhibition of FIXa by AT-III/UFH [12]: 42 nM
- K0.5 (nM), inhibition of FIXa by AT-III/UFH (FIXa R318E (human)): > 10000 nM
- K0.5 (nM), inhibition of FIXa by AT-III/UFH (FIXa K400E/R403E (human)): > 999 nM
Substance: plasma purified human AT-III (antithrombin III), in complex with full-length unfractionated heparin (from UniProt P01008 33-464)

- kapp (apparent second-order rate constant for inhibition) [5]: 370000 M⁻¹ s⁻¹
Substance: FIXa-Y155F/K247N/N249S/R318Y/R338E/T343R (from UniProt P00740 47-191; P00740 227-461) (enzyme)

- kapp (apparent second-order rate constant for inhibition) [5]: 130000 M⁻¹ s⁻¹
Substance: FIXa-Y155F/K247N/N249S/R403E/E410N (from UniProt P00740 47-191; P00740 227-461) (enzyme)

- kapp (apparent second-order rate constant for inhibition) [5]: 50000 M⁻¹ s⁻¹
Substance: FIXa-K247N/N249S/R338E/T343R/R403E (from UniProt P00740 47-191; P00740 227-461) (enzyme)

- ATIII Kapp (second-order rate constant of inhibition) [1]: 1.1e+06 M⁻¹ s⁻¹
Substance: FIX of SEQ ID NO: 394, with the replacements R318Y/R338E/T343R (activated, FIXa) (from UniProt P00740 47-191; P00740 227-461) (enzyme)

- kapp (apparent second-order rate constant for inhibition) [5]: 17000 M⁻¹ s⁻¹
Substance: FIXa-K228N/K247N/N249S/R318Y/T343R/R403E/E410N (from UniProt P00740 47-191; P00740 227-461) (enzyme)

- kapp (apparent second-order rate constant for inhibition) [5]: 210000 M⁻¹ s⁻¹
Substance: FIXa-K247N/N249S/R318Y/R338E/T343R/E410N (from UniProt P00740 47-191; P00740 227-461) (enzyme)

- kapp (apparent second-order rate constant for inhibition) [5]: 2e+07 M⁻¹ s⁻¹
Substance: FIXa-R338E/T343R/E410N (from UniProt P00740 47-191; P00740 227-461) (enzyme)

- kapp (apparent second-order rate constant for inhibition) [5]: 25000 M⁻¹ s⁻¹
Substance: FIXa-K247N/N249S/R318Y/T343R/R403E/E410N (from UniProt P00740 47-191; P00740 227-461) (enzyme)

- kapp (apparent second-order rate constant for inhibition) [5]: 1000 M⁻¹ s⁻¹
Substance: FIXa-K228N/K247N/N249S/R318Y/R338E/T343R/R403E (from UniProt P00740 47-191; P00740 227-461) (enzyme)

- kapp (apparent second-order rate constant for inhibition) [5]: 28000 M⁻¹ s⁻¹
Substance: FIXa-Y155F/K247N/N249S/R318Y/T343R/R403E/E410N (from UniProt P00740 47-191; P00740 227-461) (enzyme)
